B1: 9E8 antibody (antibody, V domains shown)
VH: EVQLQQSGPELVKPGASMKISCKASGYSFTGYTMNWVKQSHGKNLEWIGLINPYNGGTSYNQKFKGKATLTVDKSSSTAYMELLSLTSEDSAVYYCARVGGSSWYFDVWGAGTTVTVSS
VL: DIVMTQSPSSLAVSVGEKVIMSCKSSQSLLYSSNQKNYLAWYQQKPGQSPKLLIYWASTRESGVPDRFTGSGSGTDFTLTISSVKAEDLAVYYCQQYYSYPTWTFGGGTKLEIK
notes: Mouse hybridoma monoclonal antibody, detected with anti-mouse IgG; The printed VH and VL are identical to those of 3A8
B2: 3A8 antibody (antibody, V domains shown)
VH: B1 VH
VL: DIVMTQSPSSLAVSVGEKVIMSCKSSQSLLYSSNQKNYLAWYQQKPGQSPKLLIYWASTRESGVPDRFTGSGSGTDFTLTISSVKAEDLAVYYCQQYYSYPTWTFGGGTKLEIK
notes: Mouse hybridoma monoclonal antibody; Tested as hybridoma culture supernatant in ELISA and at 1 ug in flow cytometry, detected with anti-mouse IgG; The printed VH and VL are identical to those of 9E8
B3: 9E11 antibody (antibody, V domains shown)
VH: QVQLKESGPGLVKPSQSLSLTCTVTGYSITSDYAWNWIRQFPGNKLEWMGYISYSGSTRYNPSLKSRISITRDTSKNQFFLQLNSVTTEDTATYYCARGAAGFAYWGQGTLVTVSA
VL: DIVMTQSPASQSASLGESVTITCLASQTIGTWLAWYQQKPGKSPQLLIYAATSLADGVPSRFSGSGSGTEFSFKISSLQAEDFVSYYCQQLYSTPWTFGGGTKLEIK
notes: Mouse hybridoma monoclonal antibody, detected with anti-mouse IgG
B4: 5A9 antibody (antibody, V domains shown)
VH: EVQLEESGPAVIKPSQSLSLTCIVSGFSITSSSYCWHWIRQPPGKGLEWMGRICYEGSIYYSPSIKSRFTISRDTSLNKFFIQLSSVTNEDTAMYYCSRENRLLKDAMDYWGQGTSVTVSS
VL: DIVMTQSPSSLAVSAGEKVTMSCKSSQSLLSSRTRKNYLAWYQQKPGQSPKLLIYWASTRESGVPDRFTGSGSGTDFTLTISSVQAEDLAVYYCKQSYNLRTFGGGTKLEIK
notes: as for B3
B5: 4G11 antibody (antibody, V domains shown)
VH: EVQLQQSGPELVKTGDSVKISCKASGYSFTGYYMHWVKQSHGKSLEWIGYISCYNGATSYSQKFKGKATFTVDTSSSTAYMQFNSLTSEDSAVYYCARWDRDWFAYWGQGTLVTVSA
VL: DIVMTQSHKFMSTSVGDRVSITCKASQDVGIAVAWYQQKPGQSPKLLIYWASTRHTGVPDRFTGSGSGTDFTLTISNVQSEDLADYFCQQYSSYPFTFGSGTKLEIK
notes: as for B3
B6: 7C3 antibody (antibody, V domains shown)
VH: EVQLQQSGAELMRPGASVKISCKATGYTFSAYWIEWVKQRPGHGLEWIGEILPGSGSTKYNEKFKGKATFTADTSSNTAYMQLSSLTSEDSAVYYCARGDYYAMDYWGQGTSVTVSS
VL: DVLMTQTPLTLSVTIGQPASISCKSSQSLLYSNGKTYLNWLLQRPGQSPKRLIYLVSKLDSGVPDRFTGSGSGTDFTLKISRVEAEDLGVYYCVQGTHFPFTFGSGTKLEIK
notes: as for B3

T1 sequence (Q13421 other isoform, or with tags, fused parts or gaps limits assumed): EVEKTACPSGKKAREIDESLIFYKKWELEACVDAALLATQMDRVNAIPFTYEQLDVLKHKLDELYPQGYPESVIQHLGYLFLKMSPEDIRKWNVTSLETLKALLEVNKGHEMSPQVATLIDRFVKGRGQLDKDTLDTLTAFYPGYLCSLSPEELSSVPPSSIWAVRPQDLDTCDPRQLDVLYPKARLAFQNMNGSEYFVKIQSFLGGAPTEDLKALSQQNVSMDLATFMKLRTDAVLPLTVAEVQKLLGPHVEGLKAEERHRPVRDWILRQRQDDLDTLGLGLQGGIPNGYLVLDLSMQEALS
T2 sequence (Q13421 other isoform, or with tags, fused parts or gaps limits assumed): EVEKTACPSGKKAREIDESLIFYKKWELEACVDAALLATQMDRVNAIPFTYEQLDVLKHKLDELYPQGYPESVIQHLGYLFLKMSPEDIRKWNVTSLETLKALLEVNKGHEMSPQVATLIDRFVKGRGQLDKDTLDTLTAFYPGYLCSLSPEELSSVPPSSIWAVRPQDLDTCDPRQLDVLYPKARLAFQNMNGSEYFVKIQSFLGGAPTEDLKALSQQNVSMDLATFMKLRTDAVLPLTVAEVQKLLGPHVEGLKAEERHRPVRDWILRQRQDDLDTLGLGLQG

One assay concerns the target T1, mesothelin on NCI-H2052 mesothelioma cells overexpressing mesothelin (UniProt Q13421 296-598).
T1 construct: whole, on cells; NCI-H2052 is a human cell line and the positive control is anti-human mesothelin; also called H2052 cells; cells expressing mesothelin
Description: flow cytometry on NCI-H2052 cells, 1 ug antibody, PE goat anti-mouse IgG secondary. On the technique in general: In flow cytometry, cells or beads pass a laser one at a time.
Molecule B1 yielded a Mean of 77.7 and a Median of 56.2.
B2 had a Mean of 861 and a Median of 704.
In turn, B3 yielded a Mean of 81.4 and a Median of 69.1.
On to B4, for which the Mean was 63.2 and the Median stood at 58.5.
In the same order, the values of B5 are 1260 and 1120.
Molecule B6 gave a Mean of 528 and a Median of 444.

Another assay has as its target T2, mesothelin protein (Acrobiosystems, cat #MSN-H5223) (UniProt Q13421 296-580).
T2 construct: The catalogue number is printed only for the immunogen; also called mesothelin peptide; MSLN
Kind of assay: ELISA, mesothelin peptide coated 100 ng/well, 100 ul hybridoma culture, anti-mIgG-HRP.
Description: First, in order to encode the mesothelin peptide, mesothelin peptide was dispensed into a 96-well plate at an amount of 100 ng/well and reacted overnight at 4° C. Then, after treatment with 1×PBST containing 3% BSA, it was blocked for 30 minutes at room temperature. […] The secondary antibody (anti-HRP, 1:10,000) was treated and reacted at room temperature for 30 minutes, washed three times with 1×PBST, and then treated with TMB for color development and reacted at room temperature for 5 minutes. Finally, the reaction was terminated by treatment with a stop solution of 1N H₂SO₄, and then the absorbance was measured at 450 nm.
Regarding B1, the “OD 450 measurements” value came to 0.758 OD 450.
As for B2, the “OD 450 measurements” value is 1.27 OD 450.
For the molecule B3, the “OD 450 measurements” value worked out at 1.64 OD 450.
For B4, the “OD 450 measurements” value stood at 1.49 OD 450.
In the case of B5, the “OD 450 measurements” value came to 1.35 OD 450.
On the same count and under the same terms, in the case of B6 it was 1.52 OD 450.

For the origin of these results see patent US20250129178A1 (INNOBATION BIO, published 2025).
